Target: autologous SHIV_(1157ipd3N4) gp120 monomer (SHIV_(1157ipd3N4))

B1: unmutated common ancestor (UCA) of the J038 lineage (antibody, V domains shown)
VH: QLQLQESGPGLVKPSETLSLTCAVSGGSISSNYWSWIRQPPGKGLEWIGRISGSGGSTDYNPSLKSRVTISTDTSKNQFSLKLSSVTAADTAVYYCAREVAEDDYGYYQPYFDYWGQGVLVTVSS
VL: DIQMTQSPSSLSASVGDRVTITCRASQGISSYLAWYQQKPGKAPKLLIYAASSLQSGVPSRFSGSGSGTDFTLTISSLQPEDFATYYCQQYNSLPLTFGGGTKVEIK
neutralisation of the autologous tier 2 1157ipd3N4 pseudovirus on TZM-bl cells, IC50: 4.97 µg mL^−1

Reference: publication PMC9130890
